Source: patent US7022313B2, “Hydrogel particle formulation” (PowderJect Research Ltd., priority 1999, dated 2006)

Assay: LDH specific activity after lyophilization (colorimetric endpoint assay)
Format: biochemical
Procedure: Lactate dehydrogenase (LDH) was obtained from Sigma Chemicals (L1254; Lot 96H9568). Bio-Gel A15M was obtained from Bio-Rad (Cat. No. 151-1050) as a powder having a MMAD of 20-150 μm. LDH activity was measured using an endpoint, colorimetric assay (Sigma No. 500). All other reagents were obtained from Fisher Scientific and were ACS-grade or better.
The Bio-Gel A15M resin was washed with water to remove preservative and then poured into a disposable 1×10 cm column to a final column volume of approximately 5 mL. The column was equilibrated with 5 mL sodium citrate, pH 6 containing 5% (w/v) mannitol. LDH was dissolved in the same buffer at 2 mg/mL final concentration. A 5 mL sample of this solution was loaded to the column and allowed to fully penetrate.
The resin was emptied from the column and lyophilized. After lyophilization the resin was re-suspended in water and poured back into the column. The column was then eluted with a 5 mL portion of the buffer. […]
The protein concentration of each solution was determined by absorbance at 280 nm using a Hewlett-Packard UV-VIS Spectrophotometer. […] The absorbance of the color formed is inversely proportional to the LDH activity. LDH specific activity was calculated by dividing the […].

With Lactate dehydrogenase [LDH] the “specific activity, % of the starting material” value (LDH loaded on agarose beads (Bio-Gel A15M), lyophilized, eluted, preliminary) was “about 40%” and the “specific activity, % of the starting material” value (LDH recovered after lyophilization from solution) was 98%.
